The labels stand for the following.
B1: Azoarcus group I ribozyme (parent)
chain: GUGCCUUGCGCCGGGAAACCACGCAAGGGAUGGUGUCAAAUUCGGCGAAACCUAAGCGCCCGCCCGGGCGUAUGGCAACGCCGAGCCAAGCUUCGGCGCCUGCGCCGAUGAAGGUGUAGAGACUAGACGGCACCCACCUAAGGCAAACGCUAUGGUGAAGGCAUAGUCCAGGGAGUGGCGAAAGUCACACAAACCGG

Variants of B1 are the subject of the data set. Put plainly: reverse-splicing fitness (ratio to wild type); higher = more active; in vitro selection; Mg2+ level not given. Put shortly:
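An in vitro group I ribozyme library with randomized positions was T7-transcribed and gel-purified. In triplicate, 10 pmol RNA in EPPS pH 7.5 was reacted with 50 pmoles of a 30-nt RNA substrate for 1 h at 37 °C across several added MgCl2 levels (1–48 mM), then stopped with EDTA. Products were reverse transcribed from a substrate-complementary primer, PCR-amplified and sequenced (HiSeq 4000). Fitness is a variant's read proportion after selection over that before, normalised to wild type.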
On to GUGCCUUGCGCCGGGAAACCACGCAAGGGAUGGUGUCAAAUUCGGCGAAACCUAAGCGCCCGCCCGGGCGUAUGGCAACGCGGAGCCAAGCUUCGGCGCCUGCGCCGAUGCAGGUGUAGUGACUAGACGGCACCCACCUAAGGCGAACGGUAUGGUGAAGGCAUAGUCCAGGGAGAGGCGAAAGUCACACAAACCGG [C82G A111C A120U A145G C150G U176A], for which the reverse-splicing fitness amounted to 0.00628.
The value for GUGCCUUGCGCCGGGAAACCACGCAAGGGAUGGUGUCAAAUUCGGCGAAACCUAAGCGCCCGCCCGGGCGUAUGGCAACGCCGAGCCAAGCUUCGGCGCCUGCGCCGAUGCAGGUGUAGAGACUAGACGGCACCCACCUAAGGCAAACGUUAUGGUGAAGGCAUAGUCAAGGGAGCGGCGAAAGUCACACAAACCGG [A111C C150U C169A U176C] was 0.0136.
To GUGCCUUGCGCCGGGAAACCACGCAAGGGAUGGUGUCAAAUUCGGCGAAACCUAAGCGCCCGCCCGGGCGUAUGGCAACGCAGAGCCAAGCUUCGGCGCCUGCGCCGAUGCAGGUGUAGCGACUAGACGGCACCCACCUAAGGCUAACGGUAUGGUGAAGGCAUAGUCAAGGGAGAGGCGAAAGUCACACAAACCGG [C82A A111C A120C A145U C150G C169A U176A] belongs 0.00956; to GUGCCUUGCGCCGGGAAACCACGCAAGGGAUGGUGUCAAAUUCGGCGAAACCUAAGCGCCCGCCCGGGCGUAUGGCAACGCAGAGCCAAGCUUCGGCGCCUGCGCCGAUGUAGGUGUAGGGACUAGACGGCACCCACCUAAGGCAAACGUUAUGGUGAAGGCAUAGUCUAGGGAGUGGCGAAAGUCACACAAACCGG [C82A A111U A120G C150U C169U], 0.00932; to GUGCCUUGCGCCGGGAAACCACGCAAGGGAUGGUGUCAAAUUCGGCGAAACCUAAGCGCCCGCCCGGGCGUAUGGCAACGCUGAGCCAAGCUUCGGCGCCUGCGCCGAUGUAGGUGUAGUGACUAGACGGCACCCACCUAAGGCGAACGCUAUGGUGAAGGCAUAGUCCAGGGAGUGGCGAAAGUCACACAAACCGG [C82U A111U A120U A145G], 0.0251.
To GUGCCUUGCGCCGGGAAACCACGCAAGGGAUGGUGUCAAAUUCGGCGAAACCUAAGCGCCCGCCCGGGCGUAUGGCAACGCUGAGCCAAGCUUCGGCGCCUGCGCCGAUGAAGGUGUAGCGACUAGACGGCACCCACCUAAGGCCAACGGUAUGGUGAAGGCAUAGUCAAGGGAGGGGCGAAAGUCACACAAACCGG [C82U A120C A145C C150G C169A U176G] belongs 0.00379; to GUGCCUUGCGCCGGGAAACCACGCAAGGGAUGGUGUCAAAUUCGGCGAAACCUAAGCGCCCGCCCGGGCGUAUGGCAACGCAGAGCCAAGCUUCGGCGCCUGCGCCGAUGGAGGUGUAGCGACUAGACGGCACCCACCUAAGGCGAACGUUAUGGUGAAGGCAUAGUCAAGGGAGCGGCGAAAGUCACACAAACCGG [C82A A111G A120C A145G C150U C169A U176C], 0.0172.
In the case of GUGCCUUGCGCCGGGAAACCACGCAAGGGAUGGUGUCAAAUUCGGCGAAACCUAAGCGCCCGCCCGGGCGUAUGGCAACGCGGAGCCAAGCUUCGGCGCCUGCGCCGAUGGAGGUGUAGGGACUAGACGGCACCCACCUAAGGCUAACGAUAUGGUGAAGGCAUAGUCCAGGGAGUGGCGAAAGUCACACAAACCGG [C82G A111G A120G A145U C150A], the reverse-splicing fitness was 0.00906.
On to GUGCCUUGCGCCGGGAAACCACGCAAGGGAUGGUGUCAAAUUCGGCGAAACCUAAGCGCCCGCCCGGGCGUAUGGCAACGCCGAGCCAAGCUUCGGCGCCUGCGCCGAUGCAGGUGUAGGGACUAGACGGCACCCACCUAAGGCCAACGAUAUGGUGAAGGCAUAGUCUAGGGAGUGGCGAAAGUCACACAAACCGG [A111C A120G A145C C150A C169U], for which the reverse-splicing fitness turned out to be 0.0139.
The value for GUGCCUUGCGCCGGGAAACCACGCAAGGGAUGGUGUCAAAUUCGGCGAAACCUAAGCGCCCGCCCGGGCGUAUGGCAACGCGGAGCCAAGCUUCGGCGCCUGCGCCGAUGGAGGUGUAGUGACUAGACGGCACCCACCUAAGGCUAACGAUAUGGUGAAGGCAUAGUCCAGGGAGAGGCGAAAGUCACACAAACCGG [C82G A111G A120U A145U C150A U176A] was 0.00578; that for GUGCCUUGCGCCGGGAAACCACGCAAGGGAUGGUGUCAAAUUCGGCGAAACCUAAGCGCCCGCCCGGGCGUAUGGCAACGCAGAGCCAAGCUUCGGCGCCUGCGCCGAUGGAGGUGUAGAGACUAGACGGCACCCACCUAAGGCGAACGGUAUGGUGAAGGCAUAGUCAAGGGAGCGGCGAAAGUCACACAAACCGG [C82A A111G A145G C150G C169A U176C] was 0.0154; that for GUGCCUUGCGCCGGGAAACCACGCAAGGGAUGGUGUCAAAUUCGGCGAAACCUAAGCGCCCGCCCGGGCGUAUGGCAACGCAGAGCCAAGCUUCGGCGCCUGCGCCGAUGGAGGUGUAGGGACUAGACGGCACCCACCUAAGGCAAACGAUAUGGUGAAGGCAUAGUCUAGGGAGGGGCGAAAGUCACACAAACCGG [C82A A111G A120G C150A C169U U176G] was 0.00838.
With GUGCCUUGCGCCGGGAAACCACGCAAGGGAUGGUGUCAAAUUCGGCGAAACCUAAGCGCCCGCCCGGGCGUAUGGCAACGCAGAGCCAAGCUUCGGCGCCUGCGCCGAUGGAGGUGUAGCGACUAGACGGCACCCACCUAAGGCAAACGUUAUGGUGAAGGCAUAGUCCAGGGAGUGGCGAAAGUCACACAAACCGG [C82A A111G A120C C150U], the reverse-splicing fitness was determined as 0.0279.
Regarding GUGCCUUGCGCCGGGAAACCACGCAAGGGAUGGUGUCAAAUUCGGCGAAACCUAAGCGCCCGCCCGGGCGUAUGGCAACGCUGAGCCAAGCUUCGGCGCCUGCGCCGAUGGAGGUGUAGUGACUAGACGGCACCCACCUAAGGCCAACGCUAUGGUGAAGGCAUAGUCCAGGGAGAGGCGAAAGUCACACAAACCGG [C82U A111G A120U A145C U176A], the reverse-splicing fitness was found to be 0.00851.
To GUGCCUUGCGCCGGGAAACCACGCAAGGGAUGGUGUCAAAUUCGGCGAAACCUAAGCGCCCGCCCGGGCGUAUGGCAACGCUGAGCCAAGCUUCGGCGCCUGCGCCGAUGGAGGUGUAGAGACUAGACGGCACCCACCUAAGGCCAACGAUAUGGUGAAGGCAUAGUCCAGGGAGGGGCGAAAGUCACACAAACCGG [C82U A111G A145C C150A U176G] belongs 0.00788.

Source of the values: the RNAGym collection of RNA variant scans (doi:10.1093/molbev/msab373).
